# Results as given in US20020103123A1.
# Several values for one entry are separate records, joined by “and”; a condition that tells them apart may be missing. Identical values can stand only once. Like-named read-outs stand apart in the source and are kept apart here.
# How the values were obtained:
# [1] = biological target: T1, rat hypothalamic Y5 receptor (rat)
# T1 sequence: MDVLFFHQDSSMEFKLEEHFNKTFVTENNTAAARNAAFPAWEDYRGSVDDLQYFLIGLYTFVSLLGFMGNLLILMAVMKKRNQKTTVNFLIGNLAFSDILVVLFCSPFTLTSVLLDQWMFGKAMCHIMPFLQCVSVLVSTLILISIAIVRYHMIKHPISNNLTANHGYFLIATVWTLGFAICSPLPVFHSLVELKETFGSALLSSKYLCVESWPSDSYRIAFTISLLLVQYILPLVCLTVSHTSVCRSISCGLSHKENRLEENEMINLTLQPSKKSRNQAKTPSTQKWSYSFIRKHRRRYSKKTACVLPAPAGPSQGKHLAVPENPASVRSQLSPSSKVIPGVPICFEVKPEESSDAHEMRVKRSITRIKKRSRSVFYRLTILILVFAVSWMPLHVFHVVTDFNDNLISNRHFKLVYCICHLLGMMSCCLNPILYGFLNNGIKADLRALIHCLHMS
# [2] = biological target: human hippocampal Y5 receptor (human)
# [3] = biological target: human Y2 receptor (human) (UniProt P49146); experiment: 125I-PYY displacement, COS-7 membranes
# rat Y1 receptor (rat) [4] = biological target: rat Y1 receptor (rat) (UniProt P21555); experiment: 125I-PYY displacement, COS-7 membranes
# rat Y2 receptor (rat) [5] = biological target: rat Y2 receptor (rat) (UniProt Q9ERC0); experiment: 125I-PYY displacement, COS-7 membranes
# rat Y4 receptor (rat) [6] = biological target: rat Y4 receptor (rat) (UniProt Q63447); experiment: 125I-PYY displacement, COS-7 membranes
# Sequence of rat Y4 receptor (rat) (Q63447 whole entry): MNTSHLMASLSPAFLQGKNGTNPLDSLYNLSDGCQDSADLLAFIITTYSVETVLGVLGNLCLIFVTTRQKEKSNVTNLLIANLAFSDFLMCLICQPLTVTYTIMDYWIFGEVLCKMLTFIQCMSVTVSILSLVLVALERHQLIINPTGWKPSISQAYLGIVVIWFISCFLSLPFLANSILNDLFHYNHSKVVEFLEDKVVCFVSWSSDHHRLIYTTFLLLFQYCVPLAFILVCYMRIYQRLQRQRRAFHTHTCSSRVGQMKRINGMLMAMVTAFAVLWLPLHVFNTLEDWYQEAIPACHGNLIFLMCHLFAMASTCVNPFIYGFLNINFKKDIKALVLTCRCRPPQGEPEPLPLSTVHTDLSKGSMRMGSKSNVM
# [7] = biological target: T1, rat hypothalamic Y5 receptor (rat); experiment: 125I-PYY displacement, COS-7 membranes
# [8] = biological target: membranes from rat hypothalamus; experiment: 125I-PYY displacement, rat hypothalamic membranes; high-affinity part of a two-part curve
# [9] = biological target: membranes from rat hypothalamus; experiment: 125I-PYY displacement, rat hypothalamic membranes
# [10] = biological target: human hippocampal Y5 receptor (human); remark: listed apart in the source
# [11] = biological target: human hippocampal Y5 receptor (human); remark: listed apart in the source
# [12] = biological target: human hippocampal Y5 receptor (human); experiment: 125I-PYY displacement, COS-7 membranes
# [13] = biological target: T1, rat hypothalamic Y5 receptor (rat); remark: listed apart in the source
# [14] = biological target: human hippocampal Y5 receptor (human); experiment: 125I-PYY displacement
# [15] = biological target: human Y1 receptor (human) (UniProt P25929); experiment: 125I-PYY displacement, COS-7 membranes
# rat Y2 receptor (rat) [16] = biological target: rat Y2 receptor (rat) (UniProt Q9ERC0); experiment: 125I-PYY displacement, COS-7 membranes; remark: listed apart in the source
# rat Y4 receptor (rat) [17] = biological target: rat Y4 receptor (rat) (UniProt Q63447); experiment: 125I-PYY displacement, COS-7 membranes; remark: listed apart in the source
# [18] = biological target: T1, rat hypothalamic Y5 receptor (rat); experiment: 125I-PYY displacement, COS-7 membranes; remark: listed apart in the source
# [19] = biological target: human Y1 receptor (human) (UniProt P25929); experiment: 125I-PYY displacement, COS-7 membranes; remark: listed apart in the source
# [20] = biological target: human Y2 receptor (human) (UniProt P49146); experiment: 125I-PYY displacement, COS-7 membranes; remark: listed apart in the source
# rat Y1 receptor (rat) [21] = biological target: rat Y1 receptor (rat) (UniProt P21555); experiment: 125I-PYY displacement, COS-7 membranes; remark: listed apart in the source
# rat Y2 receptor (rat) [22] = biological target: rat Y2 receptor (rat) (UniProt Q9ERC0); experiment: 125I-PYY displacement, COS-7 membranes; remark: listed apart in the source
# rat Y4 receptor (rat) [23] = biological target: rat Y4 receptor (rat) (UniProt Q63447); experiment: 125I-PYY displacement, COS-7 membranes; remark: listed apart in the source
# [24] = biological target: human hippocampal Y5 receptor (human); experiment: 125I-PYY displacement, LM(tk-) membranes
# [25] = biological target: human hippocampal Y5 receptor (human); experiment: 125I-PYY3-36 displacement, LM(tk-) membranes
# [26] = biological target: human Y4 receptor (human) (UniProt P50391); experiment: 125I-PYY displacement, COS-7 membranes
# [27] = biological target: T1, rat hypothalamic Y5 receptor (rat); experiment: 125I-PYY displacement, COS-7 membranes; remark: listed apart in the source
# [28] = biological target: T1, rat hypothalamic Y5 receptor (rat); experiment: time course, 0.08 nM radioligand, room temperature, 10 mM Na+
# [29] = biological target: T1, rat hypothalamic Y5 receptor (rat); experiment: time course, 0.08 nM radioligand, room temperature, 138 mM Na+
# [30] = biological target: T1, rat hypothalamic Y5 receptor (rat); experiment: saturation binding, isotonic buffer, room temperature, COS-7 membranes
# [31] = biological target: human hippocampal Y5 receptor (human); experiment: 125I-PYY displacement, COS-7 membranes; remark: listed apart in the source
substance,measurement,setting,value
"human [Leu^31, Pro^34]NPY (from UniProt P01303) (peptide)","inhibition of forskolin-stimulated cAMP accumulation, EC50",[1],0.6 nM
same,maximum inhibition of forskolin-stimulated cAMP accumulation (Emax),[1],70%
same,"inhibition of forskolin-stimulated cAMP accumulation, EC50",[2],3 nM
same,Ki,[3],> 130 nM
same,Ki,rat Y1 receptor (rat) [4],0.1 nM
same,Ki,rat Y2 receptor (rat) [5],> 1000 nM
same,Ki,rat Y4 receptor (rat) [6],0.59 nM
same,Ki,[7],1 nM
same,IC50,[8],0.21 nM
"rat/human NPY, P01303 (peptide; carboxy terminal amide; other documents disagree on this pair)",Ki,rat Y4 receptor (rat) [6],1.7 nM
human PYY (from UniProt P10082) (peptide),% inhibition of cAMP accumulation relative to human NPY,[2],111%
same,"inhibition of forskolin-stimulated cAMP accumulation, EC50",[2],4.9 nM
same,IC50,[9],1.3 nM
rat/human NPY (from UniProt P01303) (peptide),"inhibition of forskolin-stimulated cAMP accumulation, EC50",[1],1.8 nM
same,maximum inhibition of forskolin-stimulated cAMP accumulation (Emax),[1],67%
same,"inhibition of forskolin-stimulated cAMP accumulation, EC50",[2],2.7 nM
same,"inhibition of forskolin-stimulated cAMP, EC50, LM(tk-) cells",[10],2.4 nM
same,"inhibition of forskolin-stimulated cAMP, EC50, NIH-3T3 cells",[10],8.5 nM
same,"maximum inhibition of forskolin-stimulated cAMP (Emax), LM(tk-) cells",[10],72%
same,"maximum inhibition of forskolin-stimulated cAMP (Emax), NIH-3T3 cells",[10],42%
same,intracellular free calcium concentration (Fura-2),[11],34 nM
same,IC50,[9],0.82 nM
"human NPY2-36, P01303 (peptide; other documents disagree on this pair)",Ki,rat Y4 receptor (rat) [6],5 nM
"human [Ile^31, Gln^34]PP (from UniProt P01298) (peptide)","inhibition of forskolin-stimulated cAMP accumulation, EC50",[2],5.6 nM
same,Ki,[12],2 nM
avian PP (peptide),Ki,rat Y2 receptor (rat) [5],> 1000 nM
human PP2-36 (from UniProt P01298) (peptide),"inhibition of forskolin-stimulated cAMP accumulation, EC50",[2],2 nM
human [D-Trp^32]NPY (from UniProt P01303) (peptide),"inhibition of forskolin-stimulated cAMP accumulation, EC50",[1],9.5 nM
same,maximum inhibition of forskolin-stimulated cAMP accumulation (Emax),[1],72%
same,"inhibition of forskolin-stimulated cAMP accumulation, EC50",[2],26 nM
same,"inhibition of forskolin-stimulated cAMP accumulation, EC50",[13],7.5 nM and 25 nm
same,Ki,[14],18 nM
same,Ki,[15],> 1000 nM
same,Ki,[3],> 1000 nM
same,Ki,rat Y2 receptor (rat) [16],> 1000 nM
same,Ki,rat Y4 receptor (rat) [17],> 1000 nM
same,Ki,[18],53 nM
same,Ki,rat Y1 receptor (rat) [4],> 1000 nM
same,Ki,rat Y2 receptor (rat) [5],760 nM
same,Ki,rat Y4 receptor (rat) [6],> 630 nM
same,Ki,[7],35 nM
same,Ki,[12],35 nM
same,Ki,[19],> 500 nM
same,Ki,[20],> 500 nM
same,Ki,rat Y1 receptor (rat) [21],> 500 nM
same,Ki,rat Y2 receptor (rat) [22],> 500 nM
same,Ki,rat Y4 receptor (rat) [23],> 500 nM
same,Ki,[24],16 nM
same,Ki,[25],10 nM
frog PP (rana temporaria) (peptide),Ki,rat Y1 receptor (rat) [4],720 nM
same,Ki,rat Y2 receptor (rat) [5],> 980 nM
same,Ki,rat Y4 receptor (rat) [6],> 1000 nM
same,Ki,[7],> 550 nM
"porcine NPY3-36, P01304 (peptide; other documents disagree on this pair)",Ki,rat Y4 receptor (rat) [6],36 nM
"porcine [Leu^31, Pro^34]NPY (from UniProt P01304) (peptide)",Ki,rat Y1 receptor (rat) [4],0.25 nM
same,Ki,rat Y2 receptor (rat) [5],840 nM
same,Ki,rat Y4 receptor (rat) [6],0.32 nM
human NPY2-36 (from UniProt P01303) (peptide),"inhibition of forskolin-stimulated cAMP accumulation, EC50",[1],2 nM
same,maximum inhibition of forskolin-stimulated cAMP accumulation (Emax),[1],84%
same,IC50,[9],2.3 nM
porcine C2-NPY (peptide),"inhibition of forskolin-stimulated cAMP accumulation, EC50",[1],240 nM
same,Ki,[15],79 nM
same,Ki,[3],3.5 nM
same,Ki,[26],120 nM
same,Ki,[18],470 nM
same,Ki,rat Y1 receptor (rat) [4],140 nM
same,Ki,rat Y2 receptor (rat) [5],2.6 nM
same,Ki,rat Y4 receptor (rat) [6],22 nM
same,Ki,[7],> 260 nM
same,Ki,[12],370 nM
same,Ki,[27],260 nM
same,Ki,[24],260 nM
same,Ki,[25],220 nM
human PYY3-36 (from UniProt P10082) (peptide),"inhibition of forskolin-stimulated cAMP accumulation, EC50",[1],4.9 nM
same,"inhibition of forskolin-stimulated cAMP accumulation, EC50",[2],18 nM
W(nor-L)RF-amide (peptide),Ki,[7],8700 nM
"porcine ^125I-[Leu^31, Pro^34]PYY (from UniProt P68005) (peptide)",maximal specific binding,[28],480 fmol/mg
same,observed association rate (Kobs),[28],0.042 min⁻¹
same,t1/2 of association,[28],17 min
same,maximal specific binding,[29],330 fmol/mg
same,observed association rate (Kobs),[29],0.029 min⁻¹
same,t1/2 of association,[29],24 min
same,Kd,[30],0.072 nM
same,pKd,[30],10.1
salmon PP (peptide),"inhibition of forskolin-stimulated cAMP accumulation, EC50",[1],0.92 nM
same,% inhibition of cAMP accumulation relative to human NPY,[2],96%
same,"inhibition of forskolin-stimulated cAMP accumulation, EC50",[2],4.5 nM
same,Ki,[15],0.11 nM
same,Ki,[3],0.17 nM
same,Ki,[26],3.2 nM
same,Ki,[31],0.46 nM
same,Ki,[18],0.31 nM
same,Ki,rat Y1 receptor (rat) [4],0.3 nM
same,Ki,rat Y2 receptor (rat) [5],0.16 nM
same,Ki,rat Y4 receptor (rat) [6],3 nM
same,Ki,[7],0.33 nM
same,Ki,[12],0.27 nM
same,Ki,[25],0.63 nM
human PP (from UniProt P01298) (peptide),% inhibition of cAMP accumulation relative to human NPY,[2],96%
same,"inhibition of forskolin-stimulated cAMP accumulation, EC50",[2],14 nM
"human NPY free acid, P01303 (peptide; free carboxylic acid at the carboxy terminus instead of the amide; other documents disagree on this pair)",Ki,rat Y4 receptor (rat) [6],> 1000 nM
frog NPY (melanostatin) (peptide),Ki,rat Y1 receptor (rat) [4],0.09 nM
same,Ki,rat Y2 receptor (rat) [5],0.65 nM
same,Ki,[7],0.71 nM
